Results reported in the supplement of paper PMC12042874.
± gives the uncertainty stated by the source.

assay: amyloid nucleation score (Sup35N fusion, yeast selection) (log enrichment); library NNK2; higher = more nucleation; inactive = no reads after selection
Summary of the method: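 Peptides of 20 random codons fused to Sup35N were expressed in psi-negative yeast, induced 24 hours with 100 μM copper sulfate, then grown 7 days at 30°C on medium lacking adenine and uracil. Input and output plasmid inserts were Illumina-sequenced. Nucleation score is the DiMSum log enrichment of output over input reads, centred on the mode score of non-aggregating sequences, excluding sequences with under 100 input reads. Random libraries had three technical output replicates.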

Substance | amyloid nucleation score
STFIMCDRTDPASIAIA | 0.6 ± 0.64
TFPSISTFARSLFFVYQVYP | -1.13 ± 1.1
AHLRITFSMSMNMQLFMVLR | 0.587 ± 0.48
LVVVKFTEVKALCFSVWGMG | 1.05 ± 0.57
QCGSSMFRMPVLNWTA | 0.734 ± 0.81
SFKFFTVQF | 6.66 ± 0.088
DVDEVW | -1.09 ± 0.61
CAISYSFPGIFRQWCVFPDG | -0.593 ± 0.33
FYFHEACPSRLHHTKSAIGK | -0.839 ± 0.78
MGLTEEVIKWQGHVGWTWAG | 1.55 ± 0.29
NVVFRFVVEYNLWWLSVPDY | -0.578 ± 1.1
EVMCDAKLAGCVTSRPWLSR | 0.925 ± 0.34
VVRKGCL | -0.86 ± 1.1
CGRWVSGAWDGCGCGLGVLG | -0.305 ± 0.55
NSRSLTDTHDCMVTGWATRH | -0.159 ± 0.45
LSHLLDGGISLKEGYILWMM | -0.252 ± 0.55
DHRVLQWLTAPY | 0.353 ± 0.36
LSWDYLSWTREI | -0.333 ± 0.24
MFCRTRALSRTGPTGQLLRV | 3.56 ± 0.13
FFISLDRVMLTGLKLTCPLG | -0.266 ± 1.1
AADSRYGGNGCFRSMLFALI | 0.817 ± 0.45
FLRILFFGLGVMLQIRFFVH | -0.569 ± 0.37
LCWFAMLEYVWDGHAVGDSI | 4.06 ± 0.061
RVIWSPSRDRSSWFTESEYH | -0.278 ± 0.36
SSLDRKAVLAILSSTYLLRL | 2.33 ± 0.23

Substance | amyloid nucleation score
DRMQVRSR | 0.944 ± 0.27
RECDKEFRQSSSCIDRRLGM | -0.156 ± 0.8
TSWCSIHTVMLYLFLIVCQY | inactive
LYISQSCGRHD | -0.554 ± 0.22
FPGPRRLSWFPGVQRVSMMI | -0.243 ± 0.79
LFEFSFITPYGV | -0.531 ± 0.44
FEWSTGCG | inactive
NIFFNL | -0.13 ± 0.36
MYCETLRRSILMVNMNPRNP | -0.114 ± 0.31
SNHVKCGWICKFSLRIQSVY | 0.129 ± 0.65
SGYVIHLVDDKALHTCDRNQ | 0.294 ± 0.18
FFSGGIILHYSYPTWEWYRS | 2.92 ± 0.098
HILRRINIWGGFPCMRVSKN | -0.755 ± 1.1
YNSVKLLEGPFLCSSLTGS | 0.444 ± 0.6
LWRILVALFAISILRTLVMQ | 1.63 ± 0.2
LHILRA | 0.605 ± 0.47
RCIDSVLIMHITYFAAFGKL | 5.08 ± 0.099
QHSKD | -1.71 ± 0.77
FPFKILSVKPH | 3.45 ± 0.14
GSYYCIDVGASRRPVWILSA | 0.855 ± 0.48
YILMHGSHM | 3.73 ± 0.071
DNYITLIAMKGYKTAYSTVS | -0.116 ± 0.61
LCWFSNRSRLEEVS | inactive
GLRLFKMKDFC | 2.14 ± 0.21
CIKALRVYFYEGFTSTR | -1.89 ± 1.1

Substance | amyloid nucleation score
WHCLLGLNYLFGYVSYSTSW | 4.99 ± 0.098
AGPWGVSTFYAVHLLASLYP | -0.446 ± 0.79
WVVHLSSGIRNF | inactive
IVFPDCSRYKKPHFCYEMVI | inactive
DDSMHWFYLLGWIPVGSKGG | inactive
FSYNMACLNKLLSLSLYRFS | -1.29 ± 0.44
FIIIVLNNSVFRMKCALASI | -0.202 ± 1.1
LTCFSPLVRLEGA | -0.212 ± 0.49
SKYKRLYVGTNDIIQLDWSN | 3.16 ± 0.068
SSGRGIRLTLTVSIDRKKMG | -0.391 ± 0.4
VNYVDGWV | 1.45 ± 0.34
IKAFWS | inactive
YYSYYWQTNHID | -1.68 ± 0.62
SFNEWLSR | -0.391 ± 0.55
KRIIFALL | -0.337 ± 0.48
QHYLKPAMARQSLKGIFDQD | -0.595 ± 0.61
YLYILVRNGGASSVC | -0.635 ± 0.4
VLLSITSRRVMPTSKI | 0.594 ± 0.81
FFVESRSCSGYKMMKRCLDV | 1.54 ± 0.15
IPILSFMRGLALSRSATYMS | inactive
LTCSVNTGYYGYIRRL | -0.607 ± 0.25
LFKPLRNR | -0.918 ± 0.33
RLNVL | -0.987 ± 0.53
TSGLAGGDWNWAS | 0.314 ± 0.64
GSPIESGVFNANLWPYDAYG | -0.216 ± 0.41

Substance | amyloid nucleation score
FYMTYWISPMVIQWVFTDYA | 5.571 ± 0.034
CSDCDSRMC | -0.41 ± 0.42
PQSWCFFPNFDKGLVLVRRQ | 0.801 ± 0.82
MHHIFYVGNLSW | inactive
FKFLADVVPWFSSRWSHLMM | -0.867 ± 0.37
VGYLRELLYAEGT | -0.476 ± 0.35
FCYCLIKGCMLEGLSNYSCD | -0.613 ± 1.1
HEGNKRARYLALLSEIYFQW | 4.65 ± 0.084
VLSYRVHLEPARCFSGGYCY | 0.512 ± 0.19
TWRLKVVGQRQTFSKFTGLG | -0.133 ± 0.35
GWVLI | -0.994 ± 1.1
HYVYFGYECAFGGG | -0.365 ± 0.76
DDYTDTCRCDMFRFSEFLTN | -0.534 ± 0.74
LYIASSSLHCGLDVAW | -0.298 ± 0.49
SGSKGRASVNIIDR | 0.131 ± 1
FLLWIHF | 1.04 ± 0.44
HERGTNVLYTLVEWGARAVS | 1.16 ± 0.49
GSYMS | 3.54 ± 0.065
TMQSWFSAFYLVVDMPTRYC | -0.232 ± 0.29
FDSEQLIRYD | -0.909 ± 1.1
LFYKVFAYLFFVDVVCASKG | 4.97 ± 0.062
YKRRRWRVENRNGVSFSHTD | 0.806 ± 0.3
YGVVYAYYPDQVQWVGCNE | -0.24 ± 0.64
MCYHDSVNNERINMGVLLHV | 0.067 ± 0.56
YVCLRRWNWRMKLTCVSKLG | 0.734 ± 0.35

Substance | amyloid nucleation score
HSFTTMFWNSAMY | 4.11 ± 0.062
IVRWCLLIIIF | inactive
WSRKECG | 0.408 ± 0.4
SMGLSC | inactive
SDMLLVISWFSFVKNK | 4.05 ± 0.073
HVLHCTYSQSSMEQLFCFNW | inactive
ISQRNRSIAYYKMSLTRYGF | inactive
TWRFYTFLFEVFRRSEILKR | -0.97 ± 1.1
FFLNVFDIMRILLYN | inactive
GWSMCRVSRLTMLVSVVFFC | 0.377 ± 0.26
VNSKNYV | -0.075 ± 0.39
GSSAYITLLHYEILNLRLLC | 4.12 ± 0.079
NVCLGFFPD | 0.282 ± 0.8
YYFIG | 0.673 ± 0.24
DVSNLWFTNFCGFWGKYVVK | inactive
DGFYG | inactive
VYGLVL | 0.011 ± 0.45
LMSKKGNGIGLEQPLLSSDT | -0.778 ± 1.1
WGCWTVRSTT | 0.92 ± 0.46
NVLSWKHMRAKGVNWFGGWV | -0.066 ± 0.27
GRFDSRAFTDDMTKIPMYYL | 0.045 ± 0.36
SFMGEK | -0.453 ± 0.74
QVCDRILTWSRLPLSISRVR | 0.062 ± 0.79
ALGSRINYQKGLMQNRTGKG | -0.649 ± 0.76
KLNNVRLGGERFDLRTLGLR | -0.104 ± 0.42

Substance | amyloid nucleation score
DHIVYTLGCWGLRSPFKPLL | 0.026 ± 1.1
RNGFAIRITANHYTQLVYDL | 3.82 ± 0.094
YVYERIDSERRTRPCKKKMY | inactive
GCKNR | 0.226 ± 0.51
CNFSCGPKNQKNSMILWILN | inactive
ANAAV | 1.12 ± 0.61
RIYNYWTIARKFFRV | -1.24 ± 0.55
FPTFVAMW | 0.35 ± 0.23
YDLSASLVFGMFVNDLRRSR | 5.68 ± 0.096
DRLAILSNFGVVMIPTLRLY | -0.09 ± 0.4
CDMFLSYLRT | 1.74 ± 0.23
NRTFSQRSVRLVSCPLLSKA | inactive
LDSVQWNGCMIRYSYLGMGW | -0.138 ± 0.3
SLSFCVLEVSTCGCMSGYVG | 10.24 ± 0.05
HAYFFLRDRVRCSIFVIVTT | -0.453 ± 0.78
WPGLCYCGMPVRMNWLLVTP | -0.661 ± 1.1
SMGMLP | -0.641 ± 1.1
NEIARILEVRIGVEGYGGIF | -0.722 ± 0.3
TQCSLRLKFTCYAMRSFGQY | 5.02 ± 0.096
CAINPKVKRSFLVI | -1.73 ± 1.1
ADFFVLDMWLTYCMKTLFSC | -1.27 ± 0.48
TNGLLNYCSRYTDLDNGSYR | inactive
LLPSLWV | -0.437 ± 0.63
VPSGSLD | inactive
YYWASRLVMPCSNRWRLYLQ | -0.474 ± 1

Substance | amyloid nucleation score
ICRPGYGY | inactive
YYTQRAAFIWKVICKVDVYV | 2.46 ± 0.18
RDMVTVVCTWEKWCCRFPDL | 0.063 ± 0.21
FTESCQCS | -0.08 ± 0.31
DSSGVGTRLDCKLCFENLID | -0.952 ± 0.47
FFVFGSWPHSSQGEGSLHKG | 0.387 ± 0.8
TISLPYHHKVSRAMNSRF | -0.028 ± 0.62
NIFYRLNGFFQCPRSGLKGC | inactive
NQWSLRGGYWPVVLVCFAWM | inactive
SYVSIWLACWLISFNWSGNG | 0.713 ± 0.58
RRGKFEAANSWGD | 0.792 ± 0.53
DVLRLTQTANLLCSSALRSA | 1.07 ± 0.12
GCGGAHY | -0.633 ± 0.29
HAYYHLILDVLFPDGLWL | -0.938 ± 0.36
MFIMFIAVSFVGRMYGGHRH | -0.44 ± 0.26
GSLTDLFGWDESCFRCTALC | 3.79 ± 0.092
SMTVKDSGFMSIFGFSTVRL | -0.854 ± 0.48
LKVGVIDNI | -1.2 ± 0.61
QAGALFDKRQGLRYGWVVSM | -0.641 ± 0.41
WDVIELF | -1.4 ± 1.1
NYSYMENYICQLACKTGEAG | 5.88 ± 0.084
TMYIWRL | 6.58 ± 0.039
SSKYYA | -0.131 ± 0.32
ARVALRLIYDMDRVLWPDSY | 5 ± 0.067
